Assay results taken from paper PMC314469, “Protein Interaction Networks by Proteome Peptide Scanning” (PLoS Biology, 2004).

T1: Boi1 SH3 (BOI1_YEAST), P38041
T1 chain: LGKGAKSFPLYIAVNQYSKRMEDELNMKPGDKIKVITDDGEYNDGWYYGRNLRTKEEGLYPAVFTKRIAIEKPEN

T2: Boi2 SH3 (BOI2_YEAST), P39969
T2 chain: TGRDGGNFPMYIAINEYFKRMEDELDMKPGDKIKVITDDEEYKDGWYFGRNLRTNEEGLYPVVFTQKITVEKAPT

T3: Myo5 SH3 (MYO5_YEAST), Q04439
T3 chain: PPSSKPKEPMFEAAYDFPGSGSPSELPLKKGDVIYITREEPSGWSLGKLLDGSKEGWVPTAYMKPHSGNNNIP

T4: Rvs167 SH3 (RV167_YEAST), P39743
T4 chain: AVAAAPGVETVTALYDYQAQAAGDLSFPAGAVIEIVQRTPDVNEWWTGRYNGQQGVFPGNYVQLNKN

T5: Yfr024 SH3 (LSB3_YEAST), P43603
T5 chain: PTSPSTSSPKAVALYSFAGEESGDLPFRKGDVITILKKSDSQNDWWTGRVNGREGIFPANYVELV

T6: Yhr016c SH3 (YSC84_YEAST), P32793
T6 chain: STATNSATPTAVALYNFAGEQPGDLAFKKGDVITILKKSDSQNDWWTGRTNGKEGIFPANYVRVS


Tests used:
Test in all cases: SPOT array
[1] = molecular target: T1, Boi1 SH3 (BOI1_YEAST), P38041
[2] = molecular target: T2, Boi2 SH3 (BOI2_YEAST), P39969
[3] = molecular target: T3, Myo5 SH3 (MYO5_YEAST), Q04439
[4] = molecular target: T4, Rvs167 SH3 (RV167_YEAST), P39743
[5] = molecular target: Sho1 SH3 (SHO1_YEAST), P40073
Sho1 SH3 (SHO1_YEAST), P40073, sequence (P40073 295-366): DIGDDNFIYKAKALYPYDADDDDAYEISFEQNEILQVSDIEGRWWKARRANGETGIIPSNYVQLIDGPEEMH

[6] = molecular target: T5, Yfr024 SH3 (LSB3_YEAST), P43603
[7] = molecular target: T6, Yhr016c SH3 (YSC84_YEAST), P32793

| Binder | normalised SPOT signal, Boehringer light units (BLU); mean over the file's lines of this peptide [1] | normalised SPOT signal, Boehringer light units (BLU); mean over the file's lines of this peptide [2] | normalised SPOT signal, Boehringer light units (BLU); mean over the file's lines of this peptide [3] | normalised SPOT signal, Boehringer light units (BLU); mean over the file's lines of this peptide [4] | normalised SPOT signal, Boehringer light units (BLU); mean over the file's lines of this peptide [5] | normalised SPOT signal, Boehringer light units (BLU); mean over the file's lines of this peptide [6] | normalised SPOT signal, Boehringer light units (BLU); mean over the file's lines of this peptide [7] |
| --- | --- | --- | --- | --- | --- | --- | --- |
| EIPSKDHPYDPEKD [YGR020C 93-106] | 51.8 | 7.3 | 51.8 | 0 | 31.1 | 0 | 6 |
| EFTTREGPHQPIGN [YDR123C 192-205] | 268 | 0 | 79.8 | 29.4 | 43.5 | 9.9 | 34.5 |
| EFLIKEDPDLPPQG [YCL024W 744-757] | 78 | 69.1 | 175 | 134 | 65.4 | 8.1 | 51.8 |
| EGTTKVDPIIPVPE [YJR122W 96-109] | 57.3 | 1.6 | 180 | 53.1 | 70.4 | 0 | 0 |
| EFDLKNIPMMPAGE [YDL229W 462-475] | 18.6 | 9.1 | 106 | 74.1 | 37.1 | 112 | 32.3 |
| EKELKEGPSSPASI [YJL076W 376-389] | 46.3 | 13.1 | 208 | 41.1 | 61.7 | 0 | 28.2 |
| EFIVKTIPVPPRDF [YER025W 296-309] | 15 | 13.8 | 115 | 30.4 | 57.2 | 202 | 44.4 |
| EKEAKSEPQQPEDN [YML010W 68-81] | 22.6 | 17.9 | 139 | 19.4 | 53.3 | -0 | 8.8 |
| EGRSRLFPHSPLGR [YGL122C 259-272] | 14900 | 165 | 141 | 393 | 41.4 | 2220 | 90.9 |
| EFQSKSSPVPPASE [YDR008C 96-109] | 1430 | 26.5 | 78.8 | 83.5 | 34.9 | 7.3 | 49.9 |
| EIAKRLQPGSPVLG [YHR047C 776-789] | 26.9 | 8.9 | 172 | 116 | 22 | 126 | 58.7 |

Other lines, results leading:

| normalised SPOT signal, Boehringer light units (BLU); mean over the file's lines of this peptide [1] | normalised SPOT signal, Boehringer light units (BLU); mean over the file's lines of this peptide [2] | normalised SPOT signal, Boehringer light units (BLU); mean over the file's lines of this peptide [3] | normalised SPOT signal, Boehringer light units (BLU); mean over the file's lines of this peptide [4] | normalised SPOT signal, Boehringer light units (BLU); mean over the file's lines of this peptide [5] | normalised SPOT signal, Boehringer light units (BLU); mean over the file's lines of this peptide [6] | normalised SPOT signal, Boehringer light units (BLU); mean over the file's lines of this peptide [7] | Binder |
| --- | --- | --- | --- | --- | --- | --- | --- |
| 1090 | 42.9 | 368 | 3000 | 71.6 | 8340 | 7160 | EFPGKKSPRLPHRN [YPR097W 343-356] |
| 64.2 | 20.2 | 180 | 72.2 | 44.6 | 31.6 | 39.7 | EKESRHYPIKPPSP [YMR147W 121-134] |
| 5.1 | 20.6 | 108 | 67.9 | 20.2 | 8.7 | -0 | EIKDRDQPAVPPSP [YOL047C 317-330] |
| 744 | 29.7 | 364 | 112 | 54.5 | 824 | 55.1 | EHLQKERPKPPNKG [YOR233W 329-342] |
| 620 | 37.3 | 413 | 126 | 91 | 227 | 13.2 | EFLRKHSPKAPATG [YMR021C 127-140] |
